The chains are these.
B1: FAM46D (parent)
chain: FQEAMTHLQHKLICTRKPEEIRGG
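Further: lentivirally expressed fusions sorted by FACS into six bins by GFP to DsRed ratio, PSI derived from sequencing read proportions per bin multiplied by bin number.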

Variants of B1 are the subject of this series. In words: protein stability index of a GFP-peptide fusion (GPS, HEK-293T) (PSI 1-6); higher = more stable. As to conditions: c terminus: a fixed tail appended.
FQEAMTHLQHKLICTAKPEEIRGG [R16A]: the protein stability index came out at 3.35.
Then FQEAMTHLQHKLICTVKPEEIRGG [R16V], with 2.77.
Then FQEAMTHLQHKLICTTKPEEIRGG [R16T], with 2.56; and FQEAMTHLQHKLICTSKPEEIRGG [R16S], with 2.75; and FQEAMTHLQHKLICTFKPEEIRGG [R16F], with 2.62.
Then FQEAMTHLQHKLICTQKPEEIRGG [R16Q], with 3.16; and FQEYMTHLQHKLICTRKPEEIRGG [A4Y], with 2; and FQEEMTHLQHKLICTRKPEEIRGG [A4E], with 3.28.
On to FQEPMTHLQHKLICTRKPEEIRGG [A4P], for which the protein stability index was found to be 2.62.
Then FQEAMTHLQHTLICTRKPEEIRGG [K11T], with 2.72.
Then FQEAMTHLQHILICTRKPEEIRGG [K11I], with 2.03; and FQEAMTHLQHDLICTRKPEEIRGG [K11D], with 2.88; and FQEAMTHLQHGLICTRKPEEIRGG [K11G], with 2.38.
Then FQEAMTHLQHKLIPTRKPEEIRGG [C14P], with 2.33.
Take FQEAMTHLQHKLIITRKPEEIRGG [C14I]: the protein stability index was determined as 2.21.
Turning to FQEAMTHLQHKLISTRKPEEIRGG [C14S], the protein stability index was found to be 2.87.
As for FQEAMTHLQHKLICTRKPEEWRGG [I21W], the protein stability index was determined as 2.07.
Then FQEAMTHLQHKLICTRKPEEGRGG [I21G], with 2.69; and FQEAMTHLQHKLICTRKPEENRGG [I21N], with 3.87; and FQEAMTHLQHKLICTRKPEEKRGG [I21K], with 3.72.
Then FQEAMTHLQHKLICTRKPEEPRGG [I21P], with 3.36; and FQEAMTHLQHKLICTRKPEEIAGG [R22A], with 2.85; and FQEAMTHLQHKLICTRKPEEIWGG [R22W], with 1.41.
Then FQEAMTHLQHKLICTRKPEEIYGG [R22Y], with 1.91; and FQEAMTHLQHKLICTRKPEEIKGG [R22K], with 3.07; and FQEAMTHLQHKLICTRKPEEIIGG [R22I], with 2.41.
For the variant FQEAMTHLQHKLICTRKPEEIHGG [R22H], the protein stability index worked out at 3.14.
Consider FQEADTHLQHKLICTRKPEEIRGG [M5D], for which the protein stability index amounted to 3.44.
As to FQEALTHLQHKLICTRKPEEIRGG [M5L], the protein stability index amounted to 1.64.
Then FQEASTHLQHKLICTRKPEEIRGG [M5S], with 3.67; and FQEAITHLQHKLICTRKPEEIRGG [M5I], with 2.22; and FQEATTHLQHKLICTRKPEEIRGG [M5T], with 3.12.
For the variant FQEAMTHLQHKLICTRKPEEIRGD [G24D], the protein stability index was 2.96.
Regarding FQEAMTHLQHKLICTRKPEEIRGV [G24V], the protein stability index was found to be 3.09.
As for FQEAMTHLQHKLICTRKPEEIRGE [G24E], the protein stability index amounted to 2.49.
Then FQEAMTHLQHKLICTRKPEEIRGH [G24H], with 2.26; and FQEAMTHLQHKLMCTRKPEEIRGG [I13M], with 2.61.
Turning to FQEAMTHLQHKLLCTRKPEEIRGG [I13L], the protein stability index turned out to be 2.13.
As for FQEAMTHLQHKLNCTRKPEEIRGG [I13N], the protein stability index came to 3.33.
Then FQEAMTHLQHKLFCTRKPEEIRGG [I13F], with 1.73; and FQEAMTHLQHKLICTRKPGEIRGG [E19G], with 1.83.
Then FQEAMTHLQHKLICTRKPTEIRGG [E19T], with 2.28.
Regarding FQEAMTHLQHKLICTRKPREIRGG [E19R], the protein stability index turned out to be 1.42.
FQEAMTHQQHKLICTRKPEEIRGG [L8Q]: the protein stability index worked out at 3.68.
Consider FQEAMTHEQHKLICTRKPEEIRGG [L8E], for which the protein stability index came to 3.69.
For the variant FQEAMTHCQHKLICTRKPEEIRGG [L8C], the protein stability index came out at 3.23.
For FQEAMTHLQHKLICTRKPEYIRGG [E20Y], the protein stability index amounted to 2.34.
As to FQEAMTHLQHKLICTRKPEWIRGG [E20W], the protein stability index worked out at 2.08.
Turning to FQEAMTHLQHKLICTRKPETIRGG [E20T], the protein stability index was found to be 2.5.
Then FQEAMTHLQHKLICTRKPEKIRGG [E20K], with 3.26.
For FQEAMTHLWHKLICTRKPEEIRGG [Q9W], the protein stability index was found to be 1.16.
Then FQEAMTHLTHKLICTRKPEEIRGG [Q9T], with 2.6; and FQEAMTHLYHKLICTRKPEEIRGG [Q9Y], with 2.3.
Then FQEAMTHLAHKLICTRKPEEIRGG [Q9A], with 2.25; and FQEAMTHLRHKLICTRKPEEIRGG [Q9R], with 2.7; and FQEAMTHLMHKLICTRKPEEIRGG [Q9M], with 2.21.
Then FQEAMTHLQHKLICVRKPEEIRGG [T15V], with 2.94.
For the variant FQEAMTHLQHKLICARKPEEIRGG [T15A], the protein stability index amounted to 3.06.
As for FQEAMTHLQHKLICLRKPEEIRGG [T15L], the protein stability index was 1.77.
Then FQEAMTHLQHKLICSRKPEEIRGG [T15S], with 2.92.
Then FQEAMTGLQHKLICTRKPEEIRGG [H7G], with 2.71; and FQEAMTPLQHKLICTRKPEEIRGG [H7P], with 3.4; and FQEAMTWLQHKLICTRKPEEIRGG [H7W], with 1.95.
Then FQEAMTQLQHKLICTRKPEEIRGG [H7Q], with 2.93; and FQEAMTNLQHKLICTRKPEEIRGG [H7N], with 3.19.
Regarding FQEAMTHLQHKTICTRKPEEIRGG [L12T], the protein stability index worked out at 3.99.
For the variant FQEAMTHLQHKLICTRKCEEIRGG [P18C], the protein stability index worked out at 1.3.
Then FQEAMTHLQHKLICTRKDEEIRGG [P18D], with 2.7.
For FQEAMTHLQHKLICTRKMEEIRGG [P18M], the protein stability index turned out to be 2.24.
Then FQEAMTHLQHKLICTRKHEEIRGG [P18H], with 2.33.
Then FQEAMTHLQRKLICTRKPEEIRGG [H10R], with 2.71; and FQEAMTHLQNKLICTRKPEEIRGG [H10N], with 2.93; and FQEAMTHLQLKLICTRKPEEIRGG [H10L], with 2.24.
As to FQEAMTHLQHKLICTRKPEEIRTG [G23T], the protein stability index turned out to be 2.14.
Then FQEAMTHLQHKLICTRKPEEIREG [G23E], with 2.16; and FQEAMTHLQHKLICTRKPEEIRYG [G23Y], with 2.41; and FQEAMTHLQHKLICTRKPEEIRMG [G23M], with 2.6.
For the variant FQEAMTHLQHKLICTRKPEEIRSG [G23S], the protein stability index was 2.71.
For FQEAMTHLQHKLICTRKPEEIRIG [G23I], the protein stability index is 2.6.
Take FQEAMSHLQHKLICTRKPEEIRGG [T6S]: the protein stability index worked out at 3.2.
On to FQEAMTHLQHKLICTRNPEEIRGG [K17N], for which the protein stability index was 2.9.
Then FQEAMTHLQHKLICTRTPEEIRGG [K17T], with 2.65.
As for FQMAMTHLQHKLICTRKPEEIRGG [E3M], the protein stability index came to 1.62.
Consider FQAAMTHLQHKLICTRKPEEIRGG [E3A], for which the protein stability index came out at 1.82.
In the case of FQHAMTHLQHKLICTRKPEEIRGG [E3H], the protein stability index turned out to be 2.21.
Then FQDAMTHLQHKLICTRKPEEIRGG [E3D], with 2.17; and CQEAMTHLQHKLICTRKPEEIRGG [F1C], with 3.98; and WQEAMTHLQHKLICTRKPEEIRGG [F1W], with 3.28.
As to NQEAMTHLQHKLICTRKPEEIRGG [F1N], the protein stability index was determined as 4.29.
In the case of SQEAMTHLQHKLICTRKPEEIRGG [F1S], the protein stability index is 3.49.
In the case of KQEAMTHLQHKLICTRKPEEIRGG [F1K], the protein stability index came to 3.61.
Then AQEAMTHLQHKLICTRKPEEIRGG [F1A], with 4.16; and FMEAMTHLQHKLICTRKPEEIRGG [Q2M], with 2.28.
Consider FDEAMTHLQHKLICTRKPEEIRGG [Q2D], for which the protein stability index is 4.05.

The values above are taken from the supplement of paper PMC10567573.
